# Test results: article PMC9722718, “Structural basis of sequence-specific RNA recognition by the antiviral factor APOBEC3G”
# Legend:
# [1] = target: rA3GR8 (Macaca mulatta (rhesus macaque), UniProt M1GSK9 1-138+=AEAG+147-383, internal_change); experiment: EMSA; EMSA: 10 nM 6-FAM RNA, 50 mM HEPES pH 7.5, 250 mM NaCl, 1 mM DTT, 0.4 U/ul RNase inhibitor, 10% glycerol, on ice 10 min, 8% native PAGE at 4 C; details: protein: recombinant; tags: 6xHis-SUMO removed by PreScission protease; label: 6-FAM; single strand
# [2] = target: GST-NCp7 (HIV-1, UniProt P04591 378-432); experiment: EMSA; best binder; EMSA: 10 nM 6-FAM RNA, 50 mM HEPES pH 7.5, 250 mM NaCl, 1 mM DTT, 0.4 U/ul RNase inhibitor, 10% glycerol, on ice 10 min, 8% native PAGE at 4 C; details: protein: recombinant; tags: N-terminal GST; label: 6-FAM; single strand
# [3] = target: T1, rA3GR8/E259A (Macaca mulatta (rhesus macaque), UniProt M1GSK9 1-138+=AEAG+147-383, E259A;internal_change); experiment: X-ray crystallography; 1.83 A; 1:1; EMSA: 10 nM 6-FAM RNA, 50 mM HEPES pH 7.5, 250 mM NaCl, 1 mM DTT, 0.4 U/ul RNase inhibitor, 10% glycerol, on ice 10 min, 8% native PAGE at 4 C; details: protein: recombinant; tags: 6xHis-SUMO removed by PreScission protease; single strand
# [4] = target: T1, rA3GR8/E259A; experiment: X-ray crystallography; 1:1; EMSA: 10 nM 6-FAM RNA, 50 mM HEPES pH 7.5, 250 mM NaCl, 1 mM DTT, 0.4 U/ul RNase inhibitor, 10% glycerol, on ice 10 min, 8% native PAGE at 4 C; details: protein: recombinant; tags: 6xHis-SUMO removed by PreScission protease; single strand
# Sequence of rA3GR8 (M1GSK9 entry or part of it): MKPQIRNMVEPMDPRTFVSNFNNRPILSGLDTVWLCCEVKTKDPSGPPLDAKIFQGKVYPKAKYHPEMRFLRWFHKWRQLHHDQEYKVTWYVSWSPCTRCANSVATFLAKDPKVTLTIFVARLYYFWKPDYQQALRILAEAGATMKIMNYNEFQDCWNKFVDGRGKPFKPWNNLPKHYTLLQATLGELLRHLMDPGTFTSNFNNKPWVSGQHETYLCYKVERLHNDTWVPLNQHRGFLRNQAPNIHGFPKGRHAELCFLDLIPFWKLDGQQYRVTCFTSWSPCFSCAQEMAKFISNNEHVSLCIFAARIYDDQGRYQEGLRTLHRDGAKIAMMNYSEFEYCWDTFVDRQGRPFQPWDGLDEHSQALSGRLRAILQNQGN
# T1 sequence (M1GSK9 entry or part of it E259A/| E259A E259A): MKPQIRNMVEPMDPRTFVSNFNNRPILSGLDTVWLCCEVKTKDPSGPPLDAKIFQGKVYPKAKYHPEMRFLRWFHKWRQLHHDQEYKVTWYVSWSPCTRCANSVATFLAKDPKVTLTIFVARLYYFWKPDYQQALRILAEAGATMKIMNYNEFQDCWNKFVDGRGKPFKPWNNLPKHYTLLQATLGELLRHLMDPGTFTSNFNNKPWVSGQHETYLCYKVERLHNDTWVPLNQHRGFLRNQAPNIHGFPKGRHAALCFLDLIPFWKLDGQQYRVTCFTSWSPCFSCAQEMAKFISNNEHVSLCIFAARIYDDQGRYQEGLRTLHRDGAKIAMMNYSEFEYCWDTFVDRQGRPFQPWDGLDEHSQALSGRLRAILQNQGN
Binder,Kd [1],further results
UUUUGAUUUU (ssRNA) [RNA3-GA],47 nM,
UUUUAAUUUU (ssRNA) [RNA3-AA],10 nM,
UUUUGGUUUU (ssRNA) [RNA3-GG],,binding result [2]: binds
UUUUGAUUUU (ssRNA) [RNA3-GAxtal],,binding result [3]: binds
UUUUAAUUUU (ssRNA) [RNA3-AAxtal],,binding result [4]: binds
UUUUAGUUUU (ssRNA) [RNA3-AG],200 nM,
